Reference: US12286624B2, “Method for generating a gene editing vector with fixed guide RNA pairs” (Johann Wolfgang Goethe-Universität Frankfurt am Main, priority 2018, dated 2025)
Changes are numbered by the printed parent chain.

Columns and labels:
[1] = tested on: GFP-expressing hTERT-RPE1 cells; assay: GFP depletion by FACS after lentiviral transduction with enhanced 3Cs fixed-pair gRNA constructs; type: cell-based, human; settings: transduced 48 hours, then puromycin selection another 4 days
Experimental: (§1) GFP-expressing hTERT-RPE1 cells were transduced with them for 48 hours, after which a selection pressure (puromycin) for another 4 days was applied before the cells were analyzed by FACS and immunoblotting for which wildtype (wt) and GFP-positive cells (GFP) served as controls. […] In addition, GFP deletion efficiency was confirmed by immunoblotting of GFP, confirming the FACS finding (FIG. 15b). Fluorescent proteins expressed in human cells reflect an artificial situation, the inventors therefore asked if endogenously expressed genes in RPE1 cells would similarly be depleted more efficiently by two gRNAs. To address this question, RPE1 cells were transduced with fixed-pair gRNA constructs encoding for NHT/NHT, NHT/Cdk2, Cdk2/NHT, or Cdk2/Cdk2.
RPE1 cells were seeded at an appropriate density for each experiment with a maximal confluency of 60-70% in DMEM/F12 (Thermo Fisher Scientific), supplemented with 10% FBS and 1% penicillin-ptreptomycin (Sigma). At the day of transduction, polybrene was added to the media to a final concentration of 8 μg/mL, as well as viral supernatant according to the previously determined viral titer. The next morning, the media was replaced with fresh media and the cells were subjected to antibiotic selection or experimental analysis.
All samples were analyzed on a FACSCanto II flow cytometer (BD Biosciences), and data were processed by FlowJo software (FlowJo, LLC). Gating was carried out on the basis of viable and single cells that were identified on the basis of their scatter morphology.

Cdk2 = assay: Depletion of endogenous Cdk2 by fixed-pair gRNA constructs (immunoblot); type: cell-based, human; settings: RPE1 cells, compared with either single gRNA
Experimental: as §1
Preparation of lysates and immunoblot analyses were performed as described previously using Tris lysis buffer (50 mM Tris-HCl (pH 7.8), 150 mM NaCl, 1% IGEPAL CA-630) containing 20 mM NaF, 20 mM β-glycerophosphate, 0.3 mM Na-vanadate, 20 μg/ml RNase A, 20 μg/ml DNase and 1/300 protease inhibitor cocktail (Sigma-Aldrich, P8340) and phosphatase inhibitor cocktail #2 (Sigma-Aldrich, P5726). […] Protein levels were visualized with Pierce ECL Western Blotting Substrate on a BioRad ChemiDoc MP imaging system and analyzed with Bio-Rad Image Lab software (version 4.1 build 16).

B1: NHT-GFP2: 3Cs fixed-pair construct of one NHT control gRNA and one GFP-targeting gRNA (nucleic acid)
guide: GAAAGGACGAAACACCGGAAGGGCATCGACTTCAAGGGTTTTAGAGCTATGCTTTTTTAAAAAAGCATAGCTCTAAAACGCATGTTGTGGCGGATCTTGCGAGGTACCCAAGCG
GFP-positive cells by FACS [1]: strong reduction of GFP-positive cells

B2: GFP2-GFP1: fixed-pair combination of two different GFP-targeting gRNAs (nucleic acid)
guide: B1 guide with G80C, C81G
modifications: expressed or natural sequence
notes: fixed-pair combination of two different GFP-targeting gRNAs
GFP-positive cells by FACS [1]: below the detection limit

B3: GFP2-NHT: 3Cs fixed-pair construct of one GFP-targeting gRNA and one NHT control gRNA (nucleic acid)
guide: GAAAGGACGAAACACCGTCAGGATCAGGGTGTATGGCGTTTTAGAGCTATGCTTTTTTAAAAAAGCATAGCTCTAAAACCGATGTTGTGGCGGATCTTGCGAGGTACCCAAGCG
GFP-positive cells by FACS [1]: strong reduction of GFP-positive cells

B4: Cdk2/Cdk2: fixed-pair gRNA construct with two gRNAs targeting Cdk2 (nucleic acid)
guide: GAAAGGACGAAACACCGACAGGTTGCCAGTAAAAACAGTTTAGAGACGCTCGTCTCTAAACCTCCCGTCAACTTGTTTCTGCGAGGTACCCAAGCG
modifications: expressed or natural sequence
depletion of endogenous Cdk2 (Cdk2): more efficiently depleted
